What follows are binders tested against T1, Insulin-like Growth Factor II (IGF-II), recombinant human (human, UniProt P01344 25-91, biotinyl group (site not stated) when immobilised for SPR; not biotinylated as SPR analyte or in ITC) (assay: SPR, steady-state KD relative to wild type domain 11).
T1 construct: mature; Bought as Biotinyl-IGF-II from GroPep for immobilisation on streptavidin chips; also called IGF2; Biotinyl-IGF-II
T1 sequence (P01344 25-91): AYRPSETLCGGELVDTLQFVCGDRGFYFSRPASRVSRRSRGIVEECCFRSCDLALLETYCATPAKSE

Binder	Relative Affinity
IGF2R domain 11 with D at position 1544 (receptor, Secreted from Pichia pastoris; also called E1544D) NEHDDCQVTNPSTGHLFDLSSLSGRAGFTAAYSDKGLVYMSICGENENCPPGVGACFGQTRISVGKANKRLRYVDQVLQLVYKDGSPCPSKSGLSYKSVISFVCRPEAGPTNRPMLISLDKQTCTLFFSWHTPLACEQATHHHHHH	0.48 fold vs wild type domain 11
IGF2R domain 11 with F at position 1544 (receptor, Secreted from Pichia pastoris; also called E1544F) NEHDDCQVTNPSTGHLFDLSSLSGRAGFTAAYSFKGLVYMSICGENENCPPGVGACFGQTRISVGKANKRLRYVDQVLQLVYKDGSPCPSKSGLSYKSVISFVCRPEAGPTNRPMLISLDKQTCTLFFSWHTPLACEQATHHHHHH	1.83 fold vs wild type domain 11
IGF2R domain 11 with G at position 1544 (receptor, Secreted from Pichia pastoris; also called E1544G) NEHDDCQVTNPSTGHLFDLSSLSGRAGFTAAYSGKGLVYMSICGENENCPPGVGACFGQTRISVGKANKRLRYVDQVLQLVYKDGSPCPSKSGLSYKSVISFVCRPEAGPTNRPMLISLDKQTCTLFFSWHTPLACEQATHHHHHH	0.57 fold vs wild type domain 11

Results, then the binder that gave them:

Relative Affinity	Binder
3.87 fold vs wild type domain 11	IGF2R domain 11 with Q at position 1544 (receptor, Secreted from Pichia pastoris; also called E1544Q) NEHDDCQVTNPSTGHLFDLSSLSGRAGFTAAYSQKGLVYMSICGENENCPPGVGACFGQTRISVGKANKRLRYVDQVLQLVYKDGSPCPSKSGLSYKSVISFVCRPEAGPTNRPMLISLDKQTCTLFFSWHTPLACEQATHHHHHH
2.75 fold vs wild type domain 11	IGF2R domain 11 with M at position 1544 (receptor, Secreted from Pichia pastoris; also called E1544M) NEHDDCQVTNPSTGHLFDLSSLSGRAGFTAAYSMKGLVYMSICGENENCPPGVGACFGQTRISVGKANKRLRYVDQVLQLVYKDGSPCPSKSGLSYKSVISFVCRPEAGPTNRPMLISLDKQTCTLFFSWHTPLACEQATHHHHHH
2.02 fold vs wild type domain 11	IGF2R domain 11 with L at position 1544 (receptor, Secreted from Pichia pastoris; also called E1544L) NEHDDCQVTNPSTGHLFDLSSLSGRAGFTAAYSLKGLVYMSICGENENCPPGVGACFGQTRISVGKANKRLRYVDQVLQLVYKDGSPCPSKSGLSYKSVISFVCRPEAGPTNRPMLISLDKQTCTLFFSWHTPLACEQATHHHHHH
3.07 fold vs wild type domain 11	IGF2R domain 11 with H at position 1544 (receptor, Secreted from Pichia pastoris; also called E1544H) NEHDDCQVTNPSTGHLFDLSSLSGRAGFTAAYSHKGLVYMSICGENENCPPGVGACFGQTRISVGKANKRLRYVDQVLQLVYKDGSPCPSKSGLSYKSVISFVCRPEAGPTNRPMLISLDKQTCTLFFSWHTPLACEQATHHHHHH
2.43 fold vs wild type domain 11	IGF2R domain 11 with I at position 1544 (receptor, Secreted from Pichia pastoris; also called E1544I) NEHDDCQVTNPSTGHLFDLSSLSGRAGFTAAYSIKGLVYMSICGENENCPPGVGACFGQTRISVGKANKRLRYVDQVLQLVYKDGSPCPSKSGLSYKSVISFVCRPEAGPTNRPMLISLDKQTCTLFFSWHTPLACEQATHHHHHH
1.72 fold vs wild type domain 11	IGF2R domain 11 with T at position 1544 (receptor, Secreted from Pichia pastoris; also called E1544T) NEHDDCQVTNPSTGHLFDLSSLSGRAGFTAAYSTKGLVYMSICGENENCPPGVGACFGQTRISVGKANKRLRYVDQVLQLVYKDGSPCPSKSGLSYKSVISFVCRPEAGPTNRPMLISLDKQTCTLFFSWHTPLACEQATHHHHHH
7.33 fold vs wild type domain 11	IGF2R domain 11 with R at position 1544 (receptor, Secreted from Pichia pastoris; also called E1544R) NEHDDCQVTNPSTGHLFDLSSLSGRAGFTAAYSRKGLVYMSICGENENCPPGVGACFGQTRISVGKANKRLRYVDQVLQLVYKDGSPCPSKSGLSYKSVISFVCRPEAGPTNRPMLISLDKQTCTLFFSWHTPLACEQATHHHHHH
1.94 fold vs wild type domain 11	IGF2R domain 11 with W at position 1544 (receptor, Secreted from Pichia pastoris; also called E1544W) NEHDDCQVTNPSTGHLFDLSSLSGRAGFTAAYSWKGLVYMSICGENENCPPGVGACFGQTRISVGKANKRLRYVDQVLQLVYKDGSPCPSKSGLSYKSVISFVCRPEAGPTNRPMLISLDKQTCTLFFSWHTPLACEQATHHHHHH
0.88 fold vs wild type domain 11	IGF2R domain 11 with N at position 1544 (receptor, Secreted from Pichia pastoris; also called E1544N) NEHDDCQVTNPSTGHLFDLSSLSGRAGFTAAYSNKGLVYMSICGENENCPPGVGACFGQTRISVGKANKRLRYVDQVLQLVYKDGSPCPSKSGLSYKSVISFVCRPEAGPTNRPMLISLDKQTCTLFFSWHTPLACEQATHHHHHH
5.24 fold vs wild type domain 11	IGF2R domain 11 with S at position 1544 (receptor, Secreted from Pichia pastoris; also called E1544S) NEHDDCQVTNPSTGHLFDLSSLSGRAGFTAAYSSKGLVYMSICGENENCPPGVGACFGQTRISVGKANKRLRYVDQVLQLVYKDGSPCPSKSGLSYKSVISFVCRPEAGPTNRPMLISLDKQTCTLFFSWHTPLACEQATHHHHHH
0.49 fold vs wild type domain 11	IGF2R domain 11 with P at position 1544 (receptor, Secreted from Pichia pastoris; also called E1544P) NEHDDCQVTNPSTGHLFDLSSLSGRAGFTAAYSPKGLVYMSICGENENCPPGVGACFGQTRISVGKANKRLRYVDQVLQLVYKDGSPCPSKSGLSYKSVISFVCRPEAGPTNRPMLISLDKQTCTLFFSWHTPLACEQATHHHHHH
1.8 fold vs wild type domain 11	IGF2R domain 11 with Y at position 1544 (receptor, Secreted from Pichia pastoris; also called E1544Y) NEHDDCQVTNPSTGHLFDLSSLSGRAGFTAAYSYKGLVYMSICGENENCPPGVGACFGQTRISVGKANKRLRYVDQVLQLVYKDGSPCPSKSGLSYKSVISFVCRPEAGPTNRPMLISLDKQTCTLFFSWHTPLACEQATHHHHHH

Target: T1, Insulin-like Growth Factor II (IGF-II), …
Experiment: as above
Remark: another data set of the same source
Method: […]. Values are the mean±S.E.M. of three separate experiments.
Kinetic analysis by Surface Plasmon Resonance (SPR) was conducted on a BIAcore 3000 biosensor (BIAcore, Uppsala, Sweden) at 25° C. in HBS-EP (10 mM HEPES, pH 7.4, 150 mM NaCl, 3 mM EDTA, 0.005% surfactant P20) at a flow rate of 40 μl/min. […] Kinetic experiments consisted of a two minute injection of analyte followed by a 100s dissociation phase in running buffer, after which the binding surface was regenerated with a 2 minute injection of 2 M MgCl₂. A blank flow cell was used for in-line reference subtraction of changes due to differences in refractive index of running buffer versus sample and a buffer-only injection was used to subtract instrument noise and drift. Injections were performed in duplicate for each concentration and in a randomised order. Kinetic parameters were determined by global fitting of sensorgrams to a two-state (conformational change) binding model using BIAevaluation software version 4.0.1. In all cases the minor component made an insignificant contribution to the overall affinity and as such only the kinetic parameters of the major binding component were used. For each interaction the dissociation affinity constant (KD) was also calculated by fitting of the response of each concentration at equilibrium to a steady-state affinity model using BIAevaluation. In order to investigate the influence of ionic strength, kinetic experiments were conducted in HBS-EP running buffers containing the desired NaCl concentration. In each case, analyte samples were made up in the appropriate running buffer prior to injection.
Following purification, the binding of each mutant construct to IGF2 was assessed by SPR and compared to the wild type domain 11.

Relative Affinity	Binder
0.9 fold vs wild type domain 11	IGF2R domain 11 G1619R (common human polymorphism) (receptor, Secreted from Pichia pastoris) NEHDDCQVTNPSTGHLFDLSSLSGRAGFTAAYSEKGLVYMSICGENENCPPGVGACFGQTRISVGKANKRLRYVDQVLQLVYKDGSPCPSKSGLSYKSVISFVCRPEARPTNRPMLISLDKQTCTLFFSWHTPLACEQATHHHHHH
0.39 fold vs wild type domain 11	IGF2R domain 11 S1543A (receptor, Secreted from Pichia pastoris) NEHDDCQVTNPSTGHLFDLSSLSGRAGFTAAYAEKGLVYMSICGENENCPPGVGACFGQTRISVGKANKRLRYVDQVLQLVYKDGSPCPSKSGLSYKSVISFVCRPEAGPTNRPMLISLDKQTCTLFFSWHTPLACEQATHHHHHH
0.11 fold vs wild type domain 11	IGF2R domain 11 T1570A (receptor, Secreted from Pichia pastoris) NEHDDCQVTNPSTGHLFDLSSLSGRAGFTAAYSEKGLVYMSICGENENCPPGVGACFGQARISVGKANKRLRYVDQVLQLVYKDGSPCPSKSGLSYKSVISFVCRPEAGPTNRPMLISLDKQTCTLFFSWHTPLACEQATHHHHHH
0.16 fold vs wild type domain 11	IGF2R domain 11 Y1542A (receptor, Secreted from Pichia pastoris) NEHDDCQVTNPSTGHLFDLSSLSGRAGFTAAASEKGLVYMSICGENENCPPGVGACFGQTRISVGKANKRLRYVDQVLQLVYKDGSPCPSKSGLSYKSVISFVCRPEAGPTNRPMLISLDKQTCTLFFSWHTPLACEQATHHHHHH
0.8 fold vs wild type domain 11	IGF2R domain 11 Q1569A (receptor, Secreted from Pichia pastoris) NEHDDCQVTNPSTGHLFDLSSLSGRAGFTAAYSEKGLVYMSICGENENCPPGVGACFGATRISVGKANKRLRYVDQVLQLVYKDGSPCPSKSGLSYKSVISFVCRPEAGPTNRPMLISLDKQTCTLFFSWHTPLACEQATHHHHHH
0.36 fold vs wild type domain 11	IGF2R domain 11 K1545A (receptor, Secreted from Pichia pastoris) NEHDDCQVTNPSTGHLFDLSSLSGRAGFTAAYSEAGLVYMSICGENENCPPGVGACFGQTRISVGKANKRLRYVDQVLQLVYKDGSPCPSKSGLSYKSVISFVCRPEAGPTNRPMLISLDKQTCTLFFSWHTPLACEQATHHHHHH
0.61 fold vs wild type domain 11	IGF2R domain 11 S1596A (receptor, Secreted from Pichia pastoris) NEHDDCQVTNPSTGHLFDLSSLSGRAGFTAAYSEKGLVYMSICGENENCPPGVGACFGQTRISVGKANKRLRYVDQVLQLVYKDGAPCPSKSGLSYKSVISFVCRPEAGPTNRPMLISLDKQTCTLFFSWHTPLACEQATHHHHHH
